Experimental data as given in publication PMC6399351, “Cationic Intrinsically Disordered Antimicrobial Peptides (CIDAMPs) Represent a New Paradigm of Innate Defense with a Potential for Novel Anti-Infectives” (Scientific Reports, 2019).
In brackets after ≈: the same amount, converted by molar mass. Read-outs that look alike come from different tables or passages of the source. Peptide text beside a SMILES is read from it. * marks the point of attachment. Palmitoyl = CCCCCCCCCCCCCCCC(=O)*

Columns and labels:
E. coli ATCC 11775 = assay: CFU assay of antimicrobial activity; type: cell-based, Escherichia coli; details: 10 mM NaP
Experimental: (§1) All purified peptides and recombinant proteins were applied using a colony forming unit (CFU) assay in different media. Bacteria were grown to early log-phase in BHI, washed either with 10 mM Na-P, pH 7.4/1% TSB or pH 5.5/1% TSB, or pH 5.5 without TSB or BHI, and adjusted to a concentration of 10^4–10^5 colony forming units (CFU)/ml. For cell number control, 100 µl aliquots were diluted 1:10, 1:100 and 1:1000 and plated in duplicates on BHI agar plates. To 100 µl aliquots of the bacteria, suspended in the respective medium (10 mM Na-P buffer pH 7,0–7,4/ 1% (w/v) TSB; 10 mM Na-P buffer pH 5,5/ 1% (w/v) TSB; 10 mM Na-P buffer pH 7,0–7,4/ 1% (w/v) TSB pH 7,0–7,4/ 0,25% (w/v) glucose; 10 mM Na-P buffer pH 5,5/ 0,25% (w/v) glucose, respectively), 10 µl of a solution of the peptide or protein (two-fold dilutions, from 300 µg/ml or 150 µg/ml down to 19 ng/ml), dissolved in 0.01% (v/v) acetic acid, were added.
(§2) Then bacteria were incubated for 2 h at ambient temperature, if not otherwise stated. 10 µl of 0.01% (v/v) acetic acid, added to 100 µl aliquots of the bacteria in the respective medium, served as negative control. From each test, 1:10 and 1:100 dilutions were generated and plated as duplicates of 100 µl aliquots on BHI agar plates. After 16 h incubation at 37 °C, CFU were counted using a colony counter (Bio Kobe, Japan) and expressed as mean of the duplicate estimation to achieve a complete dose-response curve. All experiments were performed at serial dilutions in a concentration range of 100 µg/mL −25 ng/mL for recombinant HRNR fragments and 300 or 150 µg/mL–19 ng/mL for synthetic peptides.

[1] = tested on: Streptococcus pneumoniae ATCC 33400; assay: CFU assay of antimicrobial activity; type: cell-based; details: 10 mM NaP, pH 7.3, 0.25% glucose
Experimental: as §1, with “[…];” for “10 mM Na-P buffer pH 5,5/ 1% (w/v) TSB;”
as §2

[2] = tested on: Streptococcus pyogenes ATCC 12344; assay: CFU assay of antimicrobial activity; type: cell-based; details: 10 mM NaP
Experimental: as §1, with “[…];” for “10 mM Na-P buffer pH 5,5/ 1% (w/v) TSB;”
as §2

[3] = tested on: Salmonella typhimurium ATCC 13311; assay: CFU assay of antimicrobial activity; type: cell-based; details: 10 mM NaP
Experimental: as §1, §2

[4] = tested on: Staphylococcus epidermidis ATCC 14990; assay: CFU assay of antimicrobial activity; type: cell-based; details: 10 mM NaP, pH 5.5, 0.25% glucose
Experimental: as §1, §2

[5] = tested on: Acinetobacter baumannii ATCC 19606; assay: CO-ADD MIC, broth microdilution (CLSI); type: cell-based; details: Mueller–Hinton broth, 5 × 10^5 CFU/mL, 18 h 37 °C, by CO-ADD
Description: (§3) They were defined as the lowest peptide
(§4) Further details of the screening

[6] = tested on: Pseudomonas aeruginosa ATCC 27853; assay: CO-ADD MIC, broth microdilution (CLSI); type: cell-based; details: Mueller–Hinton broth, 5 × 10^5 CFU/mL, 18 h 37 °C, by CO-ADD
Description: as §3, §4

[7] = tested on: Candida albicans ATCC 90028; assay: CO-ADD MIC, antifungal assay (CLSI); type: cell-based; details: Yeast Nitrogen Base broth, 24 h 35 °C, by CO-ADD
Experimental: (§5) Fungi strains were cultured for 3 days on Yeast Extract-Peptone Dextrose (YPD) agar at 30 °C. A yeast suspension of 1 × 10^6 to 5 × 10^6 cells/mL (as determined by OD530) was prepared from five colonies. These stock suspensions were diluted with Yeast Nitrogen Base (YNB) broth to a final concentration of 2.5 × 10^3 CFU/mL. […] Plates were covered and incubated at 35 °C for 24 h without shaking.

[8] = tested on: Cryptococcus neoformans ATCC 208821; assay: CO-ADD MIC, antifungal assay (CLSI); type: cell-based; details: Yeast Nitrogen Base broth, 24 h 35 °C, by CO-ADD
Experimental: as §5

E. coli ATCC 25922 = assay: CO-ADD MIC, broth microdilution (CLSI); type: cell-based, Escherichia coli; details: Mueller–Hinton broth, 5 × 10^5 CFU/mL, 18 h 37 °C, by CO-ADD
Description: as §3, §4

P. aeruginosa ATCC 10145 = details: CFU assay, 10 mM NaP, pH 5.5, 0.25% glucose
S. aureus ATCC 6538 = details: CFU assay, 10 mM NaP, pH 5.5, 0.25% glucose
[9] = tested on: Burkholderia cepacia ATCC 25416; details: CFU assay, 10 mM NaP
[10] = tested on: Klebsiella pneumoniae ATCC 13883; details: CFU assay, 10 mM NaP
[11] = tested on: Klebsiella pneumonia ATCC 700603; details: MDR strain; CLSI, Mueller–Hinton broth, 5 × 10^5 CFU/mL, 18 h 37 °C, by CO-ADD
[12] = tested on: Staphylococcus aureus ATCC 43300; details: MRSA; CLSI, Mueller–Hinton broth, 5 × 10^5 CFU/mL, 18 h 37 °C, by CO-ADD
C. albicans ATCC 24433 = assay: CFU assay of antimicrobial activity; type: cell-based, Candida albicans; details: 10 mM NaP, pH 5.5, 0.25% glucose
Experimental: Bacteria were cultivated in either brain heart infusion medium (BHI), lysogeny broth (LB) or tryptic soy broth (TSB)[88]. If not otherwise stated, bacteria were incubated under shaking conditions (37 °C at 170 rpm) or as indicated on the ATCC- or DSM-data sheets. Candida albicans was cultured for 3 days on Yeast Extract-Peptone Dextrose (YPD) agar at 30 °C and yeast suspensions at appropriate density were treated with CIDAMPs as indicated.
as §1, §2

trypsin = type: in vitro ADME; details: for digestion by trypsin: 500 ng, 0.7 nM protease, pH 7.5, 15 h, Western blot
Description: (§6) All data shown are representatives (n = 3).
(§7) Lane 16 (“without protease”)
(§8) Table 1) have been directly applied. Note the presence of multiple bands, which originate
(§9) from oligomeric HRNR-complexes12. Data shown are representatives (n=3).

Lys-C = target: T1, Lys-C (Lysobacter enzymogenes, UniProt Q7M135); assay: Protease sensitivity testing of HRNR; type: in vitro ADME; details: n = 3
T1 construct: purchased Roche
Description: as §6
Thereafter samples were subjected to a
Data shown are representatives
as §7, §8, §9

collagenase = details: 1 µg, 1 h 37 °C, SDS-PAGE, silver staining; at higher concentrations, n = 3
KLK1 = target: T2, KLK1 (Homo sapiens, UniProt P06870); assay: Protease sensitivity testing of HRNR; type: in vitro ADME; details: 500 ng, 0.7 nM protease, pH 7.5, 15 h, Western blot, n = 3
T2 construct: purchased R&D
Experimental: as §7
(§10) Table 1) have been directly applied. Note the presence of multiple bands, which originate from oligomeric HRNR-complexes12. Data shown are representatives (n=3).
(§11) Supplementary Fi gur e 14 :
(§12) For SDS-PAGE analyses 250 ng of […]
(§13) manner, however in the absence of a protease. […]
(§14) have been directly applied. Note a marked decrease of PAD1-deiminated rHRNR2591-2684 electromobility (lane 16) relative to rHRNR2591-2684 (lane 17). D ata shown are represent a tives

KLK7 = target: T3, KLK7 (Homo sapiens, UniProt P49862); assay: Protease sensitivity testing of HRNR; type: in vitro ADME; details: 500 ng, 0.7 nM protease, pH 7.5, 15 h, Western blot, n = 3
T3 construct: purchased R&D
Experimental: as §7, §10, §11, §12, §13, §14

α-chymotrypsin = tested on: T4, α-chymotrypsin; assay: Protease sensitivity testing of HRNR; type: in vitro ADME, human; details: 10 µg, 18 h 37 °C, 1 ng to 1 pg, SDS-PAGE and HRNR Western blot, n = 3
T4 construct: purchased Sigma
Description: as §6

enterokinase EKMax = target: T5, enterokinase EKMax (Bos taurus, UniProt P98072); assay: Protease sensitivity testing of HRNR; type: in vitro ADME; details: 10 µg, 18 h 37 °C, 0,1 U to 0,0001 U, SDS-PAGE and HRNR Western blot, n = 3
T5 construct: purchased Invitrogen
Description: as §6

thermolysin = thermolysin (Bacillus thermoproteolyticus, UniProt P00800); details: 10 µg, 18 h 37 °C, 10 ng to 10 pg, SDS-PAGE and HRNR Western blot, n = 3
thermolysin, sequence (P00800 233-548): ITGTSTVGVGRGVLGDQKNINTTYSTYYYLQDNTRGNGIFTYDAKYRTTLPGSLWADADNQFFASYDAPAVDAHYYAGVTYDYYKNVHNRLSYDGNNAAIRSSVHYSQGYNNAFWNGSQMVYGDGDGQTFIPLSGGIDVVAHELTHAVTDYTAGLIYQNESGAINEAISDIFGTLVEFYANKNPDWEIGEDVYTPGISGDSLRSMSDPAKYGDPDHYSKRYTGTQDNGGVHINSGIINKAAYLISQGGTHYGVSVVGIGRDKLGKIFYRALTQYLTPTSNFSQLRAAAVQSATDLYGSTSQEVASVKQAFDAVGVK

T1 sequence (Q7M135 whole entry): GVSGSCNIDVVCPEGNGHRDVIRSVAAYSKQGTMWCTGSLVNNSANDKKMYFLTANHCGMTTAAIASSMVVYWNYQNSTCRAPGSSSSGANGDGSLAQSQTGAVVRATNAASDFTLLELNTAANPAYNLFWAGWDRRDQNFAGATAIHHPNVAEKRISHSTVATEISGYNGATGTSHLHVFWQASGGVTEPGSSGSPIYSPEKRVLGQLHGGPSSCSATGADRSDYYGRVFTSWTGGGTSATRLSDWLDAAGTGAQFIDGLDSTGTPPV
T4 sequence (P17538 34-164 limits assumed, other chains not shown): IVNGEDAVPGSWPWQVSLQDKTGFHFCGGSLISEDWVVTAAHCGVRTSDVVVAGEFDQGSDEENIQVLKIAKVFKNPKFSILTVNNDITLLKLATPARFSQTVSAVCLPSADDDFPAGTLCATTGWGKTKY
T4 sequence (P17538 167-263 limits assumed, other chains not shown): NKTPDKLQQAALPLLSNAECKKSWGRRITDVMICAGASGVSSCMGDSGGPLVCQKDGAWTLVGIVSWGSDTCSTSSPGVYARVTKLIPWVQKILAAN
T3 sequence (P49862 30-253): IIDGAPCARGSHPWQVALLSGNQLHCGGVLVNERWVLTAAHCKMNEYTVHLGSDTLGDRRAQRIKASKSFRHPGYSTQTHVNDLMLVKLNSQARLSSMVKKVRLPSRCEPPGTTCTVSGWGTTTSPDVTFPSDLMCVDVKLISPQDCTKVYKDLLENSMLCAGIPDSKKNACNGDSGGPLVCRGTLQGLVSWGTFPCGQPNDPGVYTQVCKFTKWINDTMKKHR
T5 sequence (P98072 801-1035 limits assumed): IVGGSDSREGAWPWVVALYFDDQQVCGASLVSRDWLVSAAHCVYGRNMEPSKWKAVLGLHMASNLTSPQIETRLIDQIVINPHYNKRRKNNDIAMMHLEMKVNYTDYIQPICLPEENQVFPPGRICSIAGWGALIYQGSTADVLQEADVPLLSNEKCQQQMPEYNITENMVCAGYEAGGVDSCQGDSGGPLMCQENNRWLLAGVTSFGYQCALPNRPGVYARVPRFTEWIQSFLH
T2 sequence (P06870 25-262): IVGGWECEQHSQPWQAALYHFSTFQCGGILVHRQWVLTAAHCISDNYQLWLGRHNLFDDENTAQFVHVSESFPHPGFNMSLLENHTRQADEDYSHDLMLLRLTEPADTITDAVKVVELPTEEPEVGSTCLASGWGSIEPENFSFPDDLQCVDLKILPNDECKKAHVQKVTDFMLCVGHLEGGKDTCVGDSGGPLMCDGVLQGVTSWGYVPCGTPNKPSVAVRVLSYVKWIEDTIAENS

CCCCCCCCCCCCCCCC(=O)N[C@@H](CO)C(=O)N[C@@H](Cc1c[nH]cn1)C(=O)N[C@@H](Cc1c[nH]cn1)C(=O)N[C@@H](CCCNC(=N)N)C(=O)N[C@@H](CS)C(=O)N[C@@H](CS)C(=O)N[C@@H](CCCNC(=N)N)C(=O)N[C@@H](CO)C(=O)N[C@@H](Cc1c[nH]cn1)C(=O)N[C@@H](CCCNC(=N)N)C(=O)N[C@@H](CS)C(=O)N[C@@H](CCCNC(=N)N)C(=O)N[C@@H](CCCNC(=N)N)C(=O)O [Pal-LCE-3B56–68] (Palmitoyl-SHHRCCRSHRCRR-OH)
LD90 (E. coli ATCC 11775; pH 5.5, 0.25% glucose): 0.3 µg/mL | LD90 (E. coli ATCC 11775; pH 7.3, 0.25% glucose): 0.59 µg/mL | LD90 [1]: 0.59 µg/mL | LD90 ([2]; pH 6.0, 0.25% glucose): 0.15 µg/mL | LD90 ([2]; pH 7.3, 0.25% glucose): 0.15 µg/mL | LD90 ([3]; pH 5.5, 0.25% glucose): 0.038 µg/mL | LD90 ([3]; pH 7.3, 0.25% glucose): 1.18 µg/mL | LD90 [4]: 0.3 µg/mL | Minimal inhibitory concentration (MIC) [5]: >32 µg/mL | Minimal inhibitory concentration (MIC) [6]: >32 µg/mL | Minimal inhibitory concentration (MIC) [7]: 1 µg/mL (≈ 0.517 µM) | Minimal inhibitory concentration (MIC) [8]: 0.25 µg/mL (≈ 0.129 µM) | Minimal inhibitory concentration (MIC) (E. coli ATCC 25922): >32 µg/mL | LD90 (P. aeruginosa ATCC 10145): 0.075 µg/mL | LD90 (S. aureus ATCC 6538): <0.019 µg/mL | LD90 ([9]; pH 5.5, 0.25% glucose): >300 µg/mL | LD90 ([9]; pH 7.3, 0.25% glucose): 4.7 µg/mL | LD90 ([10]; pH 5.5, 0.25% glucose): 0.15 µg/mL | LD90 ([10]; pH 7.3, 0.25% glucose): 2.35 µg/mL | Minimal inhibitory concentration (MIC) [11]: >32 µg/mL | Minimal inhibitory concentration (MIC) [12]: 16 µg/mL (≈ 8.28 µM)

B1: rHRNR2591–2684: recombinant HRNR fragment (protein, UniProt Q86YZ3 2591-2684, looked up, fragment)
chain: SQHGSGSGHSSGYGQHGSRSGQSSRGERHGSSSGSSSHYGQHGSGSRQSSGHGRQGSGSGQSPSRGRHGSGLGHSSSHGQHGSGSGRSSSRGPY
LD90 (E. coli ATCC 11775; pH 5.5, 0.25% glucose): 0.2 µg/mL | LD100 (E. coli ATCC 11775; pH 5.5, 0.25% glucose): >100 µg/mL | LD90 (C. albicans ATCC 24433): 0.39 µg/mL | LD100 (C. albicans ATCC 24433): 6.25 µg/mL | digestion by trypsin (trypsin; n = 3): digest | digestion by Lys C (Lys-C; 1 µg, 1 h 37 °C, SDS-PAGE, silver staining, at higher concentrations): sensitivity | LD90 (P. aeruginosa ATCC 10145): 0.025 µg/mL | LD100 (P. aeruginosa ATCC 10145): 0.1 µg/mL | digestion by collagenase (collagenase): sensitivity

B2: PAD1-deiminated rHRNR2591-2684: Protein Arginine Deiminase 1 (PAD1)-deiminated rHRNR2591–2684, Arg citrullinated (protein, UniProt Q86YZ3 2591-2684, looked up, fragment)
chain: SQHGSGSGHSSGYGQHGSRSGQSSRGERHGSSSGSSSHYGQHGSGSRQSSGHGRQGSGSGQSPSRGRHGSGLGHSSSHGQHGSGSGRSSSRGPY
modifications: PAD1-deiminated, arginines citrullinated
notes: Protein Arginine Deiminase 1 (PAD1)-deiminated rHRNR2591–2684, Arg citrullinated
digestion by trypsin (trypsin; n = 3): digest | digestion by LysC (Lys-C; 500 ng, 0.7 nM protease, pH 7.5, 15 h, Western blot): digest | digestion by KLK1 (KLK1): digest | digestion by KLK7 (KLK7): digest

B3: rHRNR2576–2707: recombinant HRNR fragment (protein, UniProt Q86YZ3 2576-2707, looked up, fragment)
chain: GFGHHESSSGQSSSYSQHGSGSGHSSGYGQHGSRSGQSSRGERHGSSSGSSSHYGQHGSGSRQSSGHGRQGSGSGQSPSRGRHGSGLGHSSSHGQHGSGSGRSSSRGPYESRLGHSSVFGQHESGSGHSSAY
LD90 (E. coli ATCC 11775; pH 5.5, 0.25% glucose): 0.55 µg/mL | LD100 (E. coli ATCC 11775; pH 5.5, 0.25% glucose): >100 µg/mL | LD90 (C. albicans ATCC 24433): 0.55 µg/mL | LD100 (C. albicans ATCC 24433): >140 µg/mL | sensitivity towards trypsin (trypsin; 10 µg, 18 h 37 °C, 100 pg to 0,1 pg trypsin (not modified), SDS-PAGE and HRNR Western blot, n = 3): highly sensitive | amount of unmodified trypsin that digests (trypsin; 10 µg, 18 h 37 °C, SDS-PAGE and HRNR Western blot): 1 pg | sensitivity towards α-chymotrypsin (α-chymotrypsin): highly sensitive | sensitivity towards Lys-C (Lys-C; 10 µg, 18 h 37 °C, 10 ng to 10 pg, SDS-PAGE and HRNR Western blot): highly sensitive | sensitivity towards enterokinase EKMax (enterokinase EKMax): highly sensitive | LD90 (P. aeruginosa ATCC 10145): 0.035 µg/mL | LD100 (P. aeruginosa ATCC 10145): 0.275 µg/mL | sensitivity towards thermolysin (thermolysin): highly sensitive
